{
  "source": "patent US20180162947A1",
  "about": "(UCB, published 2018)",
  "binders": {"B1": {"name": "Ab969.g2 (969gH2gL7) (antibody, human IgG4 S228P, kappa, V domains shown)", "VH": "EVTLKESGPALVKPTQTLTLTCTFSGFSLTTYGMGVGWIRQPPGKALEWLANIWWDDDKYYNPSLKNRLTISKDTSKNQVVLTMTNMDPVDTATYYCARIGPIKYPTAPYRYFDFWGQGTMVTVSS", "VL": "DIQMTQSPSSLSASVGDRVTITCLASEDIYDNLAWYQQKPGKAPKLLIYYASSLQDGVPSRFSGSGSGTDYTLTISSLQPEDFATYYCLQDSEYPWTFGGGTKVEIKR", "notes": "Full-length humanised IgG4 (S241P), human kappa (Km3 allotype); also called 969gH2gL7 DG; Ab969.2"}, "B2": {"name": "chimeric antibody 969 (rat variable regions, human gamma-4 heavy chain constant region and human kappa chain constant region) (antibody, human IgG4, V domains shown)", "VH": "QVTLKESGPGILQPSQTLSLTCTFSGFSLTTYGMGVGWIRQPSGKGLEWLANIWWDDDKYYNPSLKNRLTISKDTSNNQAFLKLTNVHTSDSATYYCARIGPIKYPTAPYRYFDFWGPGTMVTVSS", "VL": "DIQMTQSPASLSASLGETVSIECLASEDIYDNLAWYQKKPGKSPHLLIYYASSLQDGVPSRFSGSGSGTQYSLKINSLESEDAATYFCLQDSEYPWTFGGGTKLELKR", "modifications": "Alexa-488 label in the cell-based affinity assay; not carried by the letters.", "notes": "Full-length human IgG4 (S241P)/kappa chimeric; also called Ab969"}},
  "key": {"[1]": {"target": "T1, mouse CSF-1R (form not stated) (mouse, UniProt P09581 20-511, limits assumed)", "T1 construct": "also called murine CSF-1R", "T1 sequence (looked up)": "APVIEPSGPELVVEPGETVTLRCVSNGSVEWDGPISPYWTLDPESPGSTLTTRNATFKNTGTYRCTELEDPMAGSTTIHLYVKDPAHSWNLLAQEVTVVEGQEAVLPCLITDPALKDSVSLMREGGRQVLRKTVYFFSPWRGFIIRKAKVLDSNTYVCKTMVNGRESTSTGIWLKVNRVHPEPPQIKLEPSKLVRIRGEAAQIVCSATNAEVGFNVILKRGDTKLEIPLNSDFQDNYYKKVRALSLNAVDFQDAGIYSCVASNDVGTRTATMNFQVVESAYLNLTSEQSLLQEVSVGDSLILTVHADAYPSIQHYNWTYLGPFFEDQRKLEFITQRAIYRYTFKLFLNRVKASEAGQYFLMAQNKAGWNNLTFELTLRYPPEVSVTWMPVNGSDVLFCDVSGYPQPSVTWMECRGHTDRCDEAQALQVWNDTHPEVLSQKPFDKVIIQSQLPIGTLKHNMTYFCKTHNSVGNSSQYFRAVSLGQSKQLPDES", "assay": "not described"}, "[2]": {"target": "T2, recombinant human CSF-1R (form not stated) (human, UniProt P07333 20-512, limits assumed)", "T2 construct": "for the ELISA no species is stated; also called recombinant CSF-1R; recombinant CSF-1R protein", "T2 sequence (P07333 20-512 limits assumed)": "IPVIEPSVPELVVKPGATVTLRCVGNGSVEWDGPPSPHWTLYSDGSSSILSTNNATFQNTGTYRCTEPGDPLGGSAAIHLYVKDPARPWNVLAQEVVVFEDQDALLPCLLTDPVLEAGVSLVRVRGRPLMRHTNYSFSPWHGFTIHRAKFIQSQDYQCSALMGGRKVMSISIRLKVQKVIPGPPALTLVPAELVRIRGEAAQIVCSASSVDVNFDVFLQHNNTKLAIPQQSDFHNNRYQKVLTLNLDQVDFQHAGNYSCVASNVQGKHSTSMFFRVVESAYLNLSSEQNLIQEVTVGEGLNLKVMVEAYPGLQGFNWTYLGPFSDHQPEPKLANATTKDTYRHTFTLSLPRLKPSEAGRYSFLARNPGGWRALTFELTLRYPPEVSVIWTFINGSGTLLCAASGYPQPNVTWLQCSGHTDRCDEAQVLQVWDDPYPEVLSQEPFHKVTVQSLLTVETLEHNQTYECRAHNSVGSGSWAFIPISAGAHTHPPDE", "assay": "BIAcore, recombinant CSF-1R protein"}, "[3]": {"target": "T2, recombinant human CSF-1R (form not …)", "assay": "BIAcore, experiment 3 of 3", "procedure": "(§1) The assay format was capture of the anti-CSF-1R antibodies by immobilised anti-human IgG,F(ab′)₂, then a titration of hCSF-1R/Fc over the captured surface. BIA (Biomolecular Interaction Analysis) was performed using a BIAcore 3000 (GE Healthcare Bio-Sciences AB). All experiments were performed at 25° C. An AffiniPure F(ab′)₂ fragment goat anti-human IgG, F(ab′)₂ fragment specific (Jackson ImmunoResearch), was immobilised on a CM5 Sensor Chip (GE Healthcare Bio-Sciences AB) via amine coupling chemistry to a level of ˜5000 response units (RU). HBS-EP buffer (10 mM HEPES, pH 7.4, 0.15M NaCl, 3 mM EDTA, 0.005% Surfactant P20, GE Healthcare Bio-Sciences AB) was used as the running buffer with a flow rate of 10 μl/min."}, "[4]": {"target": "T2, recombinant human CSF-1R (form not …)", "assay": "ELISA ligand-blocking assay, antibody pre-mixed with 1 ng/ml CSF-1 (competitor), plate-bound CSF-1R", "text": "(§2) This method is from here on referred to as the ‘ELISA ligand-blocking assay’."}, "[5]": {"target": "T3, human CSF-1R on cells (THP-1 cells, transfected HEK293F cells, primary human monocytes) (human, UniProt P07333 20-972)", "T3 sequence (P07333 20-972)": "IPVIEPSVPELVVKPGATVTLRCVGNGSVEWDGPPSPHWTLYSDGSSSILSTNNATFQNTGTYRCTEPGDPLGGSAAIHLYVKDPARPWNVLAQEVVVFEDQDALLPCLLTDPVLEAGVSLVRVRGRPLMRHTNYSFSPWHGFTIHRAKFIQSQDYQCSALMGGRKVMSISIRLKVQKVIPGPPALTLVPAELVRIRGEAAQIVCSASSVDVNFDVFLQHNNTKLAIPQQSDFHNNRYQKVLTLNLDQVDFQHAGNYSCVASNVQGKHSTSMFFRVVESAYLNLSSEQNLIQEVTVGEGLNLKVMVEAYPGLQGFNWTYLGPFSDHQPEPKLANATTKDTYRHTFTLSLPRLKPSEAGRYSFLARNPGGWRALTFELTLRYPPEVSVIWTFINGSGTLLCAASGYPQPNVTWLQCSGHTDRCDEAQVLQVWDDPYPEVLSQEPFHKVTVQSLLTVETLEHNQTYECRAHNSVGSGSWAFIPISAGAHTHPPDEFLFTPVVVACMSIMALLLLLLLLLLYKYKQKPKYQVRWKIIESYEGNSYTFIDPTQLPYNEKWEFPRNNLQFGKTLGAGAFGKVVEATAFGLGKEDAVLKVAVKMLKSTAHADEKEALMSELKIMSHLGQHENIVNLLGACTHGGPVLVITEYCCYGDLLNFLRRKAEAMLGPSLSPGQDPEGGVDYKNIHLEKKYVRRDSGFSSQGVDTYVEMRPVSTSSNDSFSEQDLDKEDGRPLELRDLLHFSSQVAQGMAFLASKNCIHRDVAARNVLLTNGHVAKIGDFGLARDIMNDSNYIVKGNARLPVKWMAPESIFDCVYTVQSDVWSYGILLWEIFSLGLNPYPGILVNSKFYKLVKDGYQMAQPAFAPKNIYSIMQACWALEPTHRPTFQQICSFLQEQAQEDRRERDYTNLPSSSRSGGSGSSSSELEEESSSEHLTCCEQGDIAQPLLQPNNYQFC", "assay": "cell-based or functional assay"}, "[6]": {"target": "T2, recombinant human CSF-1R (form not …)", "assay": "BIAcore, DG/SG comparison, crude cell supernatant"}, "[7]": {"target": "T2, recombinant human CSF-1R (form not …)", "assay": "BIAcore, purified antibody, mean"}, "[8]": {"target": "T4, recombinant human CSF-1R/Fc fusion protein (R&D Systems) (human, UniProt P07333 20-517)", "T4 construct": "extracellular domain; Bought from R&D Systems; also called hCSF-1R/Fc; not shown: Fc part of the bought fusion protein, not described", "T4 sequence (P07333 20-517)": "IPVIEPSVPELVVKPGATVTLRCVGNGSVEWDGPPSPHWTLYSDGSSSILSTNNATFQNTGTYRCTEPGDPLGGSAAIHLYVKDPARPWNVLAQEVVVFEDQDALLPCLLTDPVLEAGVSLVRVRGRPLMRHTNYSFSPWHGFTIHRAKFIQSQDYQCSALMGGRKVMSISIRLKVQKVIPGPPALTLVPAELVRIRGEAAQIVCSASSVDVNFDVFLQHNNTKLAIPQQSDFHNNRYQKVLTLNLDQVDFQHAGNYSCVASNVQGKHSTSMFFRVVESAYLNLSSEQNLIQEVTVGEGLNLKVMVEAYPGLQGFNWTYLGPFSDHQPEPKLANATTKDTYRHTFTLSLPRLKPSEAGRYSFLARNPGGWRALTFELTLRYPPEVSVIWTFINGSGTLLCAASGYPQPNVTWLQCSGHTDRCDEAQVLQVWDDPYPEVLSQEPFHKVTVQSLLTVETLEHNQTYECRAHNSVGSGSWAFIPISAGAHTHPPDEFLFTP", "assay": "BIAcore 3000, antibody captured by anti-human IgG F(ab')2, hCSF-1R/Fc in solution, 25 C", "procedure": "Antibodies were tested for their ability to bind CSF-1R in a BIAcore assay by measurement of binding kinetics to a purified recombinant CSF-1R/Fc fusion protein.\nas §1\nRecombinant human CSF-1R/Fc (R&D Systems) was passed over the captured anti-CSF-1R antibody at 5 nM at a flow rate of 30 ul/min for 5 min, then the flow rate was increased to 100 ul/min for 30 min for the dissociation phase. The injection at 5 nM was performed twice along with a corresponding buffer control. These sensorgrams were used to generate the dissociation rate. […] These sensorgrams were used to generate the association rate. The surface was regenerated at a flow rate of 10 ul/min by a 10 ul injection of 40 mM HCl followed by a 5 ul injection of 10 mM NaOH. Double referenced background subtracted binding curves were analysed using the BIAevaluation software (version 4.1) following standard procedures. Kinetic parameters were determined from the fitting algorithm."}, "[9]": {"target": "T3, human CSF-1R on cells (THP-1 cells, …)", "assay": "inhibition of CSF-1 binding to THP-1 cells"}, "[10]": {"target": "T3, human CSF-1R on cells (THP-1 cells, …)", "assay": "cell-based or functional assay", "remark": "listed apart in the source"}, "[11]": {"target": "T3, human CSF-1R on cells (THP-1 cells, …)", "assay": "cell-based or functional assay", "remark": "listed apart in the source"}, "[12]": {"target": "T2, recombinant human CSF-1R (form not …)", "assay": "BIAcore, purified antibody, experiment 1"}, "[13]": {"target": "T2, recombinant human CSF-1R (form not …)", "assay": "BIAcore, experiment 2 of 3", "procedure": "as §1"}, "[14]": {"target": "T2, recombinant human CSF-1R (form not …)", "assay": "BIAcore, purified antibody, experiment 2"}, "[15]": {"target": "T2, recombinant human CSF-1R (form not …)", "assay": "BIAcore, mean of 3 (fourth row, unlabelled)", "procedure": "as §1"}, "[16]": {"target": "T2, recombinant human CSF-1R (form not …)", "assay": "ELISA ligand-blocking assay, antibody pre-mixed with 100 ng/ml CSF-1 (competitor), plate-bound CSF-1R", "text": "as §2"}, "[17]": {"target": "T2, recombinant human CSF-1R (form not …)", "assay": "BIAcore, experiment 1 of 3", "procedure": "as §1"}, "[18]": {"target": "T3, human CSF-1R on cells (THP-1 cells, …)", "assay": "quantitative flow cytometry on THP-1 cells, Alexa-488-labelled antibody"}, "[19]": {"target": "T2, recombinant human CSF-1R (form not …)", "assay": "BIAcore, humanisation stage, crude cell supernatant"}, "[20]": {"target": "T2, recombinant human CSF-1R (form not …)", "assay": "ELISA ligand-blocking assay, antibody pre-mixed with 10 ng/ml CSF-1 (competitor), plate-bound CSF-1R", "text": "as §2"}},
  "note": "Values joined by “and” are separate entries in the source; they are usually repeats but may differ in a detail not shown here. Equal values may be shown once.",
  "data": [
    {"binder": "B1", "values": [
      {"measurement": "binding result", "setting": "[1]", "value": "no binding"}
    ]},
    {"binder": "B2", "values": [
      {"measurement": "Kd", "setting": "[2]", "value": 4.8, "unit": "pM"},
      {"measurement": "Kd", "setting": "[3]", "value": 3.6, "unit": "pM"},
      {"measurement": "koff", "setting": "[3]", "value": "9.51e-06", "unit": "s⁻¹"},
      {"measurement": "kon", "setting": "[3]", "value": "2.68e+06", "unit": "M⁻¹ s⁻¹"},
      {"measurement": "IC50", "setting": "[4]", "value": 0.0128, "unit": "µg/mL"},
      {"measurement": "IC50, MCP-1 inhibition assay, Donor 1", "setting": "[5]", "value": 0.031, "unit": "µg/mL"},
      {"measurement": "IC50, MCP-1 inhibition assay, Donor 2", "setting": "[5]", "value": 0.0057, "unit": "µg/mL"},
      {"measurement": "IC50, MCP-1 inhibition assay, Donor 3", "setting": "[5]", "value": 0.0594, "unit": "µg/mL"},
      {"measurement": "IC50, MCP-1 inhibition assay, Donor 4", "setting": "[5]", "value": 0.0417, "unit": "µg/mL"},
      {"measurement": "IC50, MCP-1 inhibition assay, Donor 5", "setting": "[5]", "value": 0.0209, "unit": "µg/mL"},
      {"measurement": "IC50, MCP-1 inhibition assay, Donor 6", "setting": "[5]", "value": 0.007, "unit": "µg/mL"},
      {"measurement": "Kd", "setting": "[6]", "value": 2, "unit": "pM"},
      {"measurement": "koff", "setting": "[6]", "value": "8.53e-06", "unit": "s⁻¹"},
      {"measurement": "kon", "setting": "[6]", "value": "4.35e+06", "unit": "M⁻¹ s⁻¹"},
      {"measurement": "Kd", "setting": "[7]", "value": 4.3, "unit": "pM"},
      {"measurement": "koff", "setting": "[7]", "value": "9.3e-06", "unit": "s⁻¹"},
      {"measurement": "kon", "setting": "[7]", "value": "2.16e+06", "unit": "M⁻¹ s⁻¹"},
      {"measurement": "Kd", "setting": "[8]", "value": "9.65 pM and 9.6 pM"},
      {"measurement": "koff", "setting": "[8]", "value": "2.49e-05", "unit": "s⁻¹"},
      {"measurement": "kon", "setting": "[8]", "value": "2.58e+06", "unit": "M⁻¹ s⁻¹"},
      {"measurement": "IC50", "setting": "[9]", "value": 0.00289, "unit": "µg/mL"},
      {"measurement": "mean IC50, MCP-1 inhibition assay, primary human monocytes, 100 ng/ml CSF-1", "setting": "[10]", "value": 0.0246, "unit": "µg/mL"},
      {"measurement": "IC50, IL-34-dependent human monocyte assay (MCP-1 by ELISA), 100 ng/ml IL-34, Donor 1", "setting": "[11]", "value": 0.0201, "unit": "µg/mL"},
      {"measurement": "IC50, IL-34-dependent human monocyte assay (MCP-1 by ELISA), 100 ng/ml IL-34, Donor 2", "setting": "[11]", "value": 0.00979, "unit": "µg/mL"},
      {"measurement": "Kd", "setting": "[12]", "value": 4.4, "unit": "pM"},
      {"measurement": "koff", "setting": "[12]", "value": "9.49e-06", "unit": "s⁻¹"},
      {"measurement": "kon", "setting": "[12]", "value": "2.16e+06", "unit": "M⁻¹ s⁻¹"},
      {"measurement": "Kd", "setting": "[13]", "value": 3.9, "unit": "pM"},
      {"measurement": "koff", "setting": "[13]", "value": "1.1e-05", "unit": "s⁻¹"},
      {"measurement": "kon", "setting": "[13]", "value": "2.79e+06", "unit": "M⁻¹ s⁻¹"},
      {"measurement": "Kd", "setting": "[14]", "value": 4.2, "unit": "pM"},
      {"measurement": "koff", "setting": "[14]", "value": "9.1e-06", "unit": "s⁻¹"},
      {"measurement": "kon", "setting": "[14]", "value": "2.16e+06", "unit": "M⁻¹ s⁻¹"},
      {"measurement": "Kd", "setting": "[15]", "value": 3.7, "unit": "pM"},
      {"measurement": "koff", "setting": "[15]", "value": "1.03e-05", "unit": "s⁻¹"},
      {"measurement": "kon", "setting": "[15]", "value": "2.77e+06", "unit": "M⁻¹ s⁻¹"},
      {"measurement": "IC50", "setting": "[16]", "value": 0.829, "unit": "µg/mL"},
      {"measurement": "Kd", "setting": "[17]", "value": 3.6, "unit": "pM"},
      {"measurement": "koff", "setting": "[17]", "value": "1.03e-05", "unit": "s⁻¹"},
      {"measurement": "kon", "setting": "[17]", "value": "2.83e+06", "unit": "M⁻¹ s⁻¹"},
      {"measurement": "Kd", "setting": "[18]", "value": 2200, "unit": "pM"},
      {"measurement": "Kd", "setting": "[19]", "value": 3.5, "unit": "pM"},
      {"measurement": "koff", "setting": "[19]", "value": "7.99e-06", "unit": "s⁻¹"},
      {"measurement": "kon", "setting": "[19]", "value": "2.31e+06", "unit": "M⁻¹ s⁻¹"},
      {"measurement": "IC50", "setting": "[20]", "value": 0.0793, "unit": "µg/mL"}
    ]}
  ]
}
